Assay results published in paper PMC4164784, “4E-BPs require non-canonical 4E-binding motifs and a lateral surface of eIF4E to repress translation” (Nature Communications, 2014).
No end group written: not given here.

Target: T1, Dm eIF4E (residues 69–248, WT) (Drosophila melanogaster, UniProt P48598)
T1 construct: The truncated His6-eIF4E (residues 69–248) that was used in the ITC experiments; His6 (N, cleaved yes); made in house; host or cells: E. coli BL21 Star (DE3)
T1 sequence (P48598 69-248 isoform P48598-2): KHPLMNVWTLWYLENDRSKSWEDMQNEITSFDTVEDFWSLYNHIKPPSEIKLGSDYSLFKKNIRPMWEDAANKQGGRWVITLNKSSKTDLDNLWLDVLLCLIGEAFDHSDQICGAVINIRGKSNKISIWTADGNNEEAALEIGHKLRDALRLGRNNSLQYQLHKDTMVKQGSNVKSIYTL
Assay: ITC, binding to eIF4E (WT, residues 69–248)
Details: for entropic penalty (in words): bipartite regions; for TΔS / ΔG / Molar ratio / ΔH: eIF4E WT (69–248), pH 7.0, nb = no binding; for TΔS / ΔG / Kd / Molar ratio / ΔH: 20 °C; for Kd: VP-ITC, 20 mM Na-phosphate (pH 7.0), 150 mM NaCl, GB1-fused peptides (C+NC 10 μM, C 50 μM, L+NC 100 μM CUP or 200 μM Thor and 4E-T, eIF4G 20 μM) into eIF4E WT 1–20 μM, one-site model, each experiment repeated twice, nb = no binding
Procedure: Unless indicated otherwise, all the proteins were expressed in E. coli BL21 Star (DE3) cells (Invitrogen) that were grown in LB medium overnight at 20 °C. The lysis buffers were supplemented with DNaseI (5 μg ml^−1), lysozyme (1 mg ml^−1) and protease inhibitor cocktail (Roche). The truncated His6-eIF4E (residues 69–248) that was used in the ITC experiments and in Figs 2c and 5b was purified in lysis buffer containing 50 mM HEPES (pH 7.2), 300 mM NaCl, 20 mM imidazole and 2 mM β-mercaptoethanol using Ni^2+-affinity chromatography (HisTrap HP 5 ml, GE Healthcare) and eluted with a gradient of 20–500 mM imidazole. After the cleavage of the His6-tag with HRV3C protease (homemade), the protein was further purified using a heparin column (HiTrap Heparin HP 5 ml, GE Healthcare), followed by size exclusion chromatography (Superdex 75 16/60, GE Healthcare) in 20 mM Na-phosphate (pH 7.0), 300 mM NaCl and 2 mM dithiothreitol (DTT).
For the ITC measurements and the competition assays shown in Figs 4 and 5d–g, the 4E-BP peptides corresponding to the canonical (C) motifs, the combined (C+NC) motifs or L+NC were expressed with an HRV3C cleavable N-terminal MBP-tag and a non-cleavable C-terminal GB1 domain. The cells were lysed by sonication in lysis buffer containing 50 mM HEPES (pH 7.2), 300 mM NaCl and 2 mM DTT. The proteins were purified from the cleared lysates using amylose resin (New England Biolabs) followed by the cleavage of the MBP tag with HRV3C protease overnight at 4 °C. The proteins were further purified by size exclusion chromatography (Superdex 75 16/60, GE Healthcare) in 20 mM Na-phosphate (pH 7.0), 300 mM NaCl and 2 mM DTT. For the eIF4G fragment (residues 578–650) the MBP was removed after cleavage with TEV protease through an additional anion exchange chromatography (HiTrap Q HP 5 ml, GE Healthcare) before the final gel filtration.
The ITC experiments were performed using a VP-ITC microcalorimeter (MicroCal) at 20 °C. The solution of eIF4E (residues 69–248, WT or mutant: 1–20 μM) in the calorimetric cell was titrated with tenfold concentrated solutions of GB1-stabilized peptides corresponding to 4E-BPs C+NC (10 μM), C (50 μM), L+NC (100 μM CUP, 200 μM Thor and 4E-T) or eIF4G (residues 578–650, 20 μM) that were dissolved in the same buffer (20 mM Na-phosphate (pH 7.0) and 150 mM NaCl). The titration experiments consisted of an initial injection of 2 μl followed by 28 injections of 10 μl at an interval of 240 s. Each binding experiment was repeated twice. The thermodynamic parameters were estimated using a one-site binding model (Origin version 7.0), whereby the datapoint of the first injection was removed for the analysis.
(d) minimal regions for binding to eIF4E (wild-type (WT), residues 69–248). The top panels represent the raw data (μcal sec−1) whereas the bottom panels show the integrated data (kcal mole−1 of injectant) of heat changes that were best-fitted using a one-site binding model. The thermodynamic parameters correspond to heat changes that were detected when 4E-BPs (10 µM) or eIF4G (20 µM) were injected into the calorimetric cell (1.4 mL) containing 1 µM (a,b,c) or 2 µM (d) eIF4E.
Supplementary Figure 4. Thermodynamic parameters for the interaction of eIF4E with 4E-BP peptides. (a–f) ITC profiles for the interaction of eIF4E (WT, residues 69-248) and CUP (a,d), Thor (b,e) and 4E-T (c,f) peptides containing only the canonical motifs (a–c) or the L+NC regions (d–f). The measurements were performed as described in Supplementary
Fig. 3. The solutions contained the peptides corresponding to the canonical motifs (50 µM) or the L+NC regions (100 µM for CUP and 200 µM for Thor and 4E-T). The eIF4E concentration in the calorimetric cell was 5 µM (for the C peptides), 10 µM (for CUP L+NC) and 20 µM (for Thor and 4E-T L+NC peptides).
(1 picture or pasted object on this page, not shown here)

Substance: 4E-T C+NC: 4E-T residues 9–44, eIF4E-binding region short, C-terminal GB1
- entropic penalty (in words) (eIF4E WT): lower entropic penalties
- TΔS: -11.7 kcal/mol
- ΔG: -11.11 kcal/mol

Substance: 4E-T C: 4E-T residues 9–21, canonical motif
- Kd: 16 nM
- Molar ratio: 0.95±0.01
- TΔS: -8.16 kcal/mol
- ΔG: -10.45 kcal/mol
- ΔH: -18.6 ± 0.7 kcal/mol
- affinity of the 4E-T C peptide relative to CUP and Thor C peptides (eIF4E WT, C motif peptides): approximately one and two orders of magnitude higher than those of the CUP and Thor peptides, respectively

Substance: CUP C+NC: CUP residues 325–376, eIF4E-binding region short, C-terminal GB1 (KSYTRSRLMDIRNGMFNALMHRSKESFVMPRIATCDDIELEGRLRRMNIWRT-GB1; UniProt Q9VMA3 325-376, looked up, fragment)
- Kd: 9.1 nM
- entropic penalty (in words) (eIF4E WT): highest entropic penalty
- Molar ratio: 1.05±0.02
- TΔS: -23.9 kcal/mol
- ΔG: -10.78 kcal/mol
- ΔH: -34.5 ± 0.35 kcal/mol

Substance: Thor C+NC: Thor residues 50–83, eIF4E-binding region short, C-terminal GB1 (TKLIYERAFMKNLRGSPLSQTPPSNVPSCLLRGT-GB1; UniProt Q9XZ56 50-83, looked up, fragment)
- entropic penalty (in words) (eIF4E WT): lower entropic penalties
- TΔS: -4.9 kcal/mol
- ΔG: -11.87 kcal/mol

Substance: Thor C: Thor residues 50–63, canonical motif
- TΔS: -2.24 kcal/mol
